The values that follow come from patent publication US20240117030A1 (Pfizer, published 2024).

Holding throughout (assay): cell-based or functional assay
The target of assay [1] is recombinant human IL-13 (human, UniProt P35225 35-146).
In assay [2] the target is T1, recombinant human IL-33 (R&D Systems 3625-IL), reduced with DTT (human, UniProt O95760 112-270, limits assumed).
T1 sequence (looked up): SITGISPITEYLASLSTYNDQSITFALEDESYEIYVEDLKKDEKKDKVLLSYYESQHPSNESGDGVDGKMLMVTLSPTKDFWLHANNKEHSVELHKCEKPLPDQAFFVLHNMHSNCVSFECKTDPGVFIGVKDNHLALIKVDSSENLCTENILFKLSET

The target of another assay is T2, human IL-33 mm2 Cys (human, UniProt O95760 112-270, limits assumed).
T2 sequence (looked up): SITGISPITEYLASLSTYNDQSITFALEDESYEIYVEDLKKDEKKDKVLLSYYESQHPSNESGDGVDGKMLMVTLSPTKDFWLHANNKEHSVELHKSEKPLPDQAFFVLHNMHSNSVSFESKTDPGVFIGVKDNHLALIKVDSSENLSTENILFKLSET

For assay [3], the target named is T3, recombinant human IL-4 (human, UniProt P05112 25-153).
T3 sequence (looked up): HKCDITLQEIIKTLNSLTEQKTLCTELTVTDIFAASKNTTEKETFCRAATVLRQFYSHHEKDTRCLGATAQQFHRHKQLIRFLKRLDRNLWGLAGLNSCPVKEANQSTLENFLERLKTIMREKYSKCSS

Assay [4] concerns the target T4, recombinant human IL-4 (human, UniProt P05112 25-153).
T4 sequence (looked up): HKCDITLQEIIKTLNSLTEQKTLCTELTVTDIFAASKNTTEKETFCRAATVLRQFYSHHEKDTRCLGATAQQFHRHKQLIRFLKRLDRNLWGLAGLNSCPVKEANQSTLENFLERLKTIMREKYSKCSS
This is another data set of the same source.

Assay [5] addresses recombinant human IL-13 (human, UniProt P35225 35-146). This is another data set of the same source.

B1: IL13-0001 (antibody, human IgG1, kappa, V domains shown)
VH: EVQLVESGGGLVQPGGSLRLSCAASGFTFSSYAMSWVRQAPGKGLEWVASISSGDTTYYPDSVKGRFTISRDNAKNSLYLQMNSLRAEDTAVYYCARNEGYYFGLTLWGQGTLVTVSS
VL: DIQMTQSPSSLSASVGDRVTITCKASESVDHFGWSLVHWYQQKPGKAPKLLIYRASNLESGVPSRFSGSGSGTDFTLTISSLQPEDFATYYCQQSNEDPWTFGGGTKVEIKR
As to B1, the “a-hIL-13 bioassay (IC50, pM)” value with recombinant human IL-13 [1] stood at 4.83 pM.

B2: IL33-0216 (antibody, human IgG1, kappa, V domains shown)
VH: EVQLVESGGGLVQPGGSLRLSCAASGFTFSSYWMYWVRQAPGKGLEWVAAITPNAGEDYYPESVKGRFTISRDNAKNSLYLQMNSLRAEDTAVYYCARGHYYYTSYSLGYWGQGTLVTVSS
VL: DIQMTQSPSSLSASVGDRVTITCKASQNIDKHLDWYQQKPGKAPKLLIYFTNNLQTGVPSRFSGSGSGTDFTLTISSLQPEDFATYYCFQYNQGWTFGGGTKVEIKR
On to B2, for which, in assay [2], the “IC50 [pM] versus human reduced IL-33 (R&D), Experiment 1 (HEK-Blue SEAP)” value was ~677 pM and the “IC50 [pM] versus human reduced IL-33 (R&D), Experiment 2 (HEK-Blue SEAP)” value is ~1240 pM. Besides, the “IC50 [pM] versus human IL-33 mm2 Cys (HEK-Blue SEAP)” value with human IL-33 mm2 Cys was determined as 237 pM.

B3: IL4-0002 (antibody, human IgG1, kappa)
heavy: EVTLRESGPALVKPTQTLTLTCTFSGFSLSNFGEGLSWIRQPPGKGLEWLAHIYWDDDKRYNPSLKSRLTISKDTSRNQVVLTMTNMDPVDTATYYCARRETVFYWYFDVWGQGTTVTVSSASTKGPSVFPLAPSSKSTSGGTAALGCLVKDYFPEPVTVSWNSGALTSGVHTFPAVLQSSGLYSLSSVVTVPSSSLGTQTYICNVNHKPSNTKVDKKVEPKSCDKTHTCPPCPAPEAAGAPSVFLFPPKPKDTLMISRTPEVTCVVVDVSHEDPEVKFNWYVDGVEVHNAKTKPREEQYNSTYRVVSVLTVLHQDWLNGKEYKCKVSNKALPAPIEKTISKAKGQPREPQVYTLPPSREEMTKNQVSLTCLVKGFYPSDIAVEWESNGQPENNYKTTPPVLDSDGSFFLYSKLTVDKSRWQQGNVFSCSVMHEALHNHYTQKSLSLSPGK
light: DIQMTQSPSSLSASVGDRVTITCKASQSVDEDGDSYMNWYQQKPGKAPKLLIYAASNLESGVPSRFSGSGSGTDFTLTISSLQPEDFATYYCQQSNEDPPTFGGGTKVEIKRTVAAPSVFIFPPSDEQLKSGTASVVCLLNNFYPREAKVQWKVDNALQSGNSQESVTEQDSKDSTYSLSSTLTLSKADYEKHKVYACEVTHQGLSSPVTKSFNRGEC
Regarding B3, the “a-hIL-4 bioassay IC50, pM)” value with recombinant human IL-4 [3] was 3.42 pM.

B4: IL413TSLP-1037 (other)
heavy: not shown
chain 1: DIQMTQSPSSLSASVGDRVTITCKASESVDHFGWSLVHWYQQKPGKAPKLLIYRASNLESGVPSRFSGSGSGTDFTLTISSLQPEDFATYYCQQSNEDPWTFGGGTKVEIKRTVAAPSVFIFPPSDEQLKSGTASVVCLLNNFYPREAKVQWKVDNALQSGNSQESVTEQDSKDSTYSLSSTLTLSKADYEKHKVYACEVTHQGLSSPVTKSFNRGECGGGGSEVTLRESGPALVKPTQTLTLTCTFSGFSLSNFGEGLSWIRQPPGKGLEWLAHIYWDDDKRYNPSLKSRLTISKDTSRNQVVLTMTNMDPVDTATYYCARRETVFYWYFDVWGQGTTVTVSSASTKGPSVFPLAPSSKSTSGGTAALGCLVKDYFPEPVTVSWNSGALTSGVHTFPAVLQSSGLYSLSSVVTVPSSSLGTQTYICNVNHKPSNTKVDKKVEPKSCEKTHTCPPCPAPEAAGAPSVFLFPPKPKDTLMISRTPEVTCVVVDVSHEDPEVKFNWYVDGVEVHNAKTKPREEQYNSTYRVVSVLTVLHQDWLNGKEYKCKVSNKALPAPIEKTISKAKGQPREPQVYTLPPSREEMTKNQVSLTCEVKGFYPSDIAVEWESNGQPENNYKTTPPVLDSDGSFFLYSKLTVDKSRWQQGNVFSCSVLHEALHSHYTQKSLSLSPGK
light 1: SYVLTQPPSVSVAPGQTARITCGGNNLGSKSVHWYQQKPGQAPVLVVYDDKDRPSWIPERFSGSNSGNTATLTISRGEAGDEADYYCQVWDKSSDHVVFGGGTKLTVLGQPKAAPSVTLFPPSSEELQANKATLVCLISDFYPGAVTVAWKADSSPVKAGVETTTPSKQSNNKYAASSYLSLTPEQWKSHRSYSCQVTHEGSTVEKTVAPTECS
light 2: DIQMTQSPSSLSASVGDRVTITCRASQSVDEEGDSYMNWYQQKPGKAPKLLIYAASNLESGVPSRFSGSGSGTDFTLTISSLQPEDFATYYCQQSNKDPPTFGGGTKVEIKRTVAAPSVFIFPPSDEQLKSGTASVVCLLNNFYPREAKVQWKVDNALQSGNSQESVTEQDSKDSTYSLSSTLTLSKADYEKHKVYACEVTHQGLSSPVTKSFNRGEC
chain 2: EVQLVESGGGLVQPGGSLRLSCAASGFTFSSYAMSWVRQAPGKGLEWVASISSGDTTYYPDSVKGRFTISRDNAKNSLYLQMNSLRAEDTAVYYCARNEGYYFGLTLWGQGTLVTVSSASTKGPSVFPLAPSSKSTSGGTAALGCLVKDYFPEPVTVSWNSGALTSGVHTFPAVLQSSGLYSLSSVVTVPSSSLGTQTYICNVNHKPSNTKVDKKVEPKSC
Regarding B4, the “IC50 (median), IL-4 induced CD23 expression on human monocytes” value in the assay with recombinant human IL-4 [4] stood at 0.0105 nM. The “IC50 (median), IL-13 induced CD23 expression on human monocytes” value with recombinant human IL-13 [5] was determined as 0.0131 nM.

B5: IL413TSLP-1028 (other)
heavy: not shown
chain 1: DIQMTQSPSSLSASVGDRVTITCKASESVDHFGWSLVHWYQQKPGKAPKLLIYRASNLESGVPSRFSGSGSGTDFTLTISSLQPEDFATYYCQQSNEDPWTFGGGTKVEIKRTVAAPSVFIFPPSDEQLKSGTASVVCLLNNFYPREAKVQWKVDNALQSGNSQESVTEQDSKDSTYSLSSTLTLSKADYEKHKVYACEVTHQGLSSPVTKSFNRGECGGGGSEVTLRESGPALVKPTQTLTLTCTFSGFSLSNFGEGLSWIRQPPGKGLEWLAHIYWDDDKRYNPSLKSRLTISKDTSRNQVVLTMTNMDPVDTATYYCARRETVFYWYFDVWGQGTTVTVSSASTKGPSVFPLAPSSKSTSGGTAALGCLVKDYFPEPVTVSWNSGALTSGVHTFPAVLQSSGLYSLSSVVTVPSSSLGTQTYICNVNHKPSNTKVDKKVEPKSCEKTHTCPPCPAPEAAGAPSVFLFPPKPKDTLMISRTPEVTCVVVDVSHEDPEVKFNWYVDGVEVHNAKTKPREEQYNSTYRVVSVLTVLHQDWLNGKEYKCKVSNKALPAPIEKTISKAKGQPREPQVYTLPPSREEMTKNQVSLTCEVKGFYPSDIAVEWESNGQPENNYKTTPPVLDSDGSFFLYSKLTVDKSRWQQGNVFSCSVLHEALHSHYTQKSLSLSPGK
light 1: SYVLTQPPSVSVAPGQTARITCGGNNLGSKSVHWYQQKPGQAPVLVVYDDSDRPSWIPERFSGSNSGNTATLTISRGEAGDEADYYCQVWDSSSKHVVFGGGTKLTVLGQPKAAPSVTLFPPSSEELQANKATLVCLISDFYPGAVTVAWKADSSPVKAGVETTTPSKQSNNKYAASSYLSLTPEQWKSHRSYSCQVTHEGSTVEKTVAPTECS
light 2: DIQMTQSPSSLSASVGDRVTITCRASQSVDEEGDSYMNWYQQKPGKAPKLLIYAASNLESGVPSRFSGSGSGTDFTLTISSLQPEDFATYYCQQSNKDPPTFGGGTKVEIKRTVAAPSVFIFPPSDEQLKSGTASVVCLLNNFYPREAKVQWKVDNALQSGNSQESVTEQDSKDSTYSLSSTLTLSKADYEKHKVYACEVTHQGLSSPVTKSFNRGEC
chain 2: EVQLVESGGGLVQPGGSLRLSCAASGFTFSSYAMSWVRQAPGKGLEWVASISSGDTTYYPDSVKGRFTISRDNAKNSLYLQMNSLRAEDTAVYYCARNEGYYFGLTLWGQGTLVTVSSASTKGPSVFPLAPSSKSTSGGTAALGCLVKDYFPEPVTVSWNSGALTSGVHTFPAVLQSSGLYSLSSVVTVPSSSLGTQTYICNVNHKPSNTKVDKKVEPKSC
As for B5, in the assay with recombinant human IL-4 [4], the “IC50 (median), IL-4 induced CD23 expression on human monocytes” value is 0.0128 nM. Also, the “IC50 (median), IL-13 induced CD23 expression on human monocytes” value with recombinant human IL-13 [5] is 0.0129 nM.
